The results in this text go back to the supplement of paper PMC12042874.

± gives the uncertainty stated by the source.

The series in a line: amyloid nucleation score (Sup35N fusion, yeast selection) (log enrichment); library NNK3; higher = more nucleation; inactive = no reads after selection. In short, it runs like this: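 Output and input plasmid inserts were sequenced by Illumina after psi-negative yeast carrying Sup35N fused to peptides of 20 random codons had been induced 24 hours with 100 μM copper sulfate and grown 7 days at 30°C on medium lacking adenine and uracil. The nucleation score is the DiMSum log enrichment of output over input reads, centred on the mode score of non-aggregating sequences. Sequences with under 100 input reads were excluded.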
As for RCSYLMRLYISSFMY, the amyloid nucleation score entry was “inactive”.

As for GGYQAQTWL, the amyloid nucleation score result was “inactive”.

On to TSYYSMVEHSLKYQDRLMSS, for which the amyloid nucleation score result is “inactive”. As for SPDVLFESKYRFWDMLSQIA, the entry is “inactive”.

As for SHVLWCNMVNEFVHTLSRCG, the amyloid nucleation score was 1.34 ± 0.082. As for KYGENDLRFENITYLFGV, the entry is “inactive”; as for CVTFFVISTHPHSCSLSN, 2.42 ± 0.083. With LVFPVKKSLVCEGV the entry was “inactive”; with WIGVQCP, “inactive”. As for HWSFQTVIDYGHPKFF, the figure is 1.45 ± 0.15. Turning to GPLFRLRMFL, the amyloid nucleation score result was “inactive”. With SSITRVEKSCIFLCTALMLR, the amyloid nucleation score entry was “inactive”. Turning to DKALS, the amyloid nucleation score result was “inactive”. With ELFILHSGGGWCSGI the figure was 0.926 ± 0.16; with YWVCPIGFFNCWLNRMTRLM, 1.59 ± 0.12; with CRKEYIFYLFHIIMSQARNI, “inactive”. As to RMTMFRTEAAVVKRSVSTVV, the amyloid nucleation score entry was “inactive”.

QTSST: the amyloid nucleation score entry is “inactive”.

HVLKDARCDS came in with an amyloid nucleation score of 0.181 ± 0.36. Consider FPMDL, for which the amyloid nucleation score entry is “inactive”. With NVLKSRIGRFIMQIWYTNKW the entry was “inactive”.

In turn, CSCQRPKAFQVQWNGG returned an amyloid nucleation score of 0.789 ± 0.14.

Consider WVVRYMDYSLMD, for which the amyloid nucleation score entry is “inactive”. For SESCFDMMPCLVGLKSERGQ, the amyloid nucleation score entry is “inactive”. As for VRGQFSSSVLGRCLGWAWTR, the entry is “inactive”; as for MVREFTQNSKVCSTVLCDGV, “inactive”. With SGSSMTS the entry was “inactive”. Regarding YLKMLSVLKWRKNISRFVLP, the amyloid nucleation score entry is “inactive”. With YHDFLYIEGWQMSETNSFEC the entry was “inactive”; with LYVTRVSVSVVTYRFTCKRV, “inactive”. With KIWNCVYVGWNIVVNNIKGL the figure was 2.66 ± 0.076.

As for PGFSLFLGLRSVWKHFFCFR, the amyloid nucleation score result is “inactive”. With RGITMCMSVL the entry was “inactive”. As to MNRNVTSRVRTPPVCVRVRF, the amyloid nucleation score entry was “inactive”.

As to KTLIVVAVSFIWL, the amyloid nucleation score was found to be 0.887 ± 0.19. For the substance SVRRHSSGCMNNAL, the amyloid nucleation score entry was “inactive”. As for LAGSSVVKLYGPVLRFFSSL, the amyloid nucleation score result was “inactive”. With RCLMDMFHILPKKSGVFSIT the entry was “inactive”; with ARQYAIRWMWSVVIDGGEKS, “inactive”. Turning to NNLTEEEMDLAPTVSHYLYK, the amyloid nucleation score result is “inactive”. Consider LRSVLSVGGEMAYINCNQLL, for which the amyloid nucleation score entry was “inactive”. As for RWVICEFGR, the entry is “inactive”; as for MLSLSLYKLFLRWKRTSSHD, 0.904 ± 0.16; as for QPYIVFISGFVSSLWESVRK, “inactive”. As for QLKHWTEIKQVLVVSREWVH, the figure is -0.395 ± 1.3; as for VPQNVGVLWSRRQEAVVLVS, “inactive”.

Regarding YWSGRIKGTR, the amyloid nucleation score entry was “inactive”. As for LYIIFHNKYFLVEMGNYNCC, the figure is 1.88 ± 0.07; as for KQVKMGVA, “inactive”. With GQNPSLRLVKESGF the entry was “inactive”; with SRRSHWFWEPSDTCASFTRP, “inactive”; with IIIRGSSVLVVRLNDEGYVL, 0.216 ± 0.63. With FWLGGVDLAPKVGKQTMNLA the entry was “inactive”; with PLSFIKRRFRRLAGLSRSSA, “inactive”.
